Drawing on paper PMC7363153, this text covers disaggregation of 1N4R Tau fibrils with HSC70, HSPA4 and ATP: Tau shifted to the supernatant fraction (centrifugation, immunoblot) and disaggregation of 1N3R Tau fibrils with HSC70, HSPA4 and ATP: Tau shifted to the supernatant fraction (centrifugation, immunoblot) for two substances.

The target of assay [1] is 1N4R Tau (human) (UniProt P10636).
The target of assay [2] is 1N3R Tau (human) (UniProt P10636).

As to “DNAJB1 (from UniProt P25685 1-340) (natural protein)”, the disaggregation of 1N4R Tau fibrils with HSC70, HSPA4 and ATP: Tau shifted to the supernatant fraction (centrifugation, immunoblot) in assay [1] came to 26%. The disaggregation of 1N3R Tau fibrils with HSC70, HSPA4 and ATP: Tau shifted to the supernatant fraction (centrifugation, immunoblot) in assay [2] is 50%.

For “DNAJB4 (from UniProt Q9UDY4 1-337) (natural protein)”, the disaggregation of 1N4R Tau fibrils with HSC70, HSPA4 and ATP: Tau shifted to the supernatant fraction (centrifugation, immunoblot) in assay [1] came to 36%. The disaggregation of 1N3R Tau fibrils with HSC70, HSPA4 and ATP: Tau shifted to the supernatant fraction (centrifugation, immunoblot) in assay [2] was determined as 50%.
